biological target: fadd_human FADD (UniProt Q13158)
Sequence of UniProt Q13158 (Q13158 whole entry): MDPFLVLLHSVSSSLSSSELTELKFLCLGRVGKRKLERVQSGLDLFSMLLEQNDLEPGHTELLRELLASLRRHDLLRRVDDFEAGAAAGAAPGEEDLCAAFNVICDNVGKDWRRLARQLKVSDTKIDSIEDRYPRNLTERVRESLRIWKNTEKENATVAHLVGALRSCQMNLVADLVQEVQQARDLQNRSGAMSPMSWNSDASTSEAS

effect of a mutation on the interaction | Substance
increasing interaction | Leucine-rich repeat serine/threonine-protein kinase 2 (Homo sapiens), Q5S007 G2019S
increasing interaction | Leucine-rich repeat serine/threonine-protein kinase 2 (Homo sapiens), Q5S007 I2020T
increasing interaction | Leucine-rich repeat serine/threonine-protein kinase 2 (Homo sapiens), Q5S007 R1441C
increasing interaction | Leucine-rich repeat serine/threonine-protein kinase 2 (Homo sapiens), Q5S007 Y1699C
